According to US20050175608A1 (Kyowa Kirin, published 2005):

Biological target: T1, BSA-compound 1 (conjugate of the human FGF-8 partial peptide compound 1 with bovine serum albumin) (human, not fully specified; C-terminal cysteine conjugated to BSA through SMCC)
T1 construct: Coated on ELISA plates; the BSA carrier is not written as a chain
T1 peptide: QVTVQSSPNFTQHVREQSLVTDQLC
Assay: ELISA, plate coated with BSA-compound 1; positive control
Experimental: The above-prepared BSA-compound 1 solution was dispensed at a 96-well ELISA plate (manufactured by Greiner) at a concentration of from 0.5 to 1.0 μg/mL in an amount of 50 μL/well, and allowed to stand overnight at 4° C. for adsorption. After washing with PBS, 1% BSA-containing PBS (hereinafter referred to as BSA-PBS) was added in an amount of 100 μL/well and reacted at room temperature for 1 hour to block a remaining active group. After washing each well with 0.05% Tween-containing PBS (hereinafter referred to as Tween-PBS), the culture supernatant or the purified antibody of the tranformants was added in an amount of 50 μL/well, and the reaction was conducted at room temperature for 1 hour. After the reaction, each well was washed with Tween-PBS, a peroxidase-labeled goat anti-human IgG (H & L) antibody solution (manufactured by American Qualex) diluted 3,000 to 6,000 times with BSA-PBS was added as a second antibody solution in an amount of 50 μL/well. The reaction was performed at room temperature for 1 hour. […] Then, absorbance was measured at 415 nm.

binding result: binds
B1: anti-FGF-8 neutralizing chimeric antibody KM3334 (antibody, V domains shown)
VH: QVQLQQSGAEVARPGASVKLSCKASGYTFTDYYLNWVKQRSGQGLEWIGEIDPGSDSIYYNENLEGRATLTADKSSSTAYMQLNSLTSEDSAVYFCARYGYSRYDVRFVYWGQGTLVTVST
VL: DVLMTQTPLSLPVSLGDQASISCRSSQSLVHSNGRTYLEWYLQKPGQSPKVLIYKVSNRISGVPDRFSGSGSGTDFTLKISRVEAEDLGVYFCFQGSHVPYTFGGGTKLEIK
notes: expressed in YB2/0 cells; also called human chimeric antibody KM3334
